Laboratory results as given in patent US20070185028A1, “Compositions and methods for treatment of protein misfolding and protein aggregation diseases” (priority 2004, published 2007).

What was measured:
Assay type in all cases: biochemical
[1] = target: amyloid beta (1-42) (Homo sapiens, UniProt P05067); experiment: Cu+++-induced aggregation of amyloid beta (1-42), light scattering 360 nm; conditions: 100 mM Cu+++
Protocol: In vitro assays were also performed to measure the ability of the human αB crystallin derived peptides identified in Example 1 to inhibit aggregation of Cu^+++-induced amyloid beta (1-42) aggregation. Aggregation assays were performed using routine procedures, in the presence or absence of a synthesized peptide identified in Example 1, in the presence of 100 mM Cu^+++. Aggregation was measured spectrophotometrically as light scattering at a wavelength of 360 nm. Aggregated amyloid-beta was assigned a value of 100% aggregation and used to normalize aggregation in the presence of synthesize peptides.
Aggregation was measured spectrophotometrically as light scattering at a wavelength of 360 nm. Aggregated amyloid-beta was assigned a value of 100% aggregation and used to normalize aggregation in the presence of synthesize peptides. Aggregation was plotted as a bar graph with the standard error for duplicate experiments. The 1 st vertical bar is the scattering measured for aggregated amyloid-beta (100% aggregation) in the presence of 100 mM Cu^+++. The 2nd-4th vertical bars is the scattering from amyloid-beta in the presence of wild type recombinant human αB crystallin. The 5th-13th vertical bars are the scattering of amyloid-beta in the presence of the synthetic peptides, DRFSVNLDVKHFS or LTITSSLSDGV or HGKHEERQDE at selected concentrations. A prefix of 10× represents a 10:1 molar concentration of amyloid-beta to either wild type αB crystallin or its peptides. A prefix of 1× represents a 1:1 molar concentration of amyloid-beta to either wt αB crystallin or its peptides. A prefix of 0.1× represents a 1:10 molar concentration of amyloid-beta to either wt αB crystallin or its peptides.

[2] = system: βH crystallin; experiment: Chaperone assay, thermal aggregation of βH crystallin at 50° C.; conditions: 50:1 molar ratio of peptide:βH crystallin, sixty minutes, 340 nm
Protocol: (§1) The chaperone activity of the peptides was measured as their ability to protect against the thermal aggregation of three chaperone target proteins βH crystallin, ADH and CS in chaperone assays performed at 50° C. (FIG. 19). A non-interactive αB crystallin sequence 111HGKHEERQDE120 was used as the negative control in the chaperone assays (FIG. 19). Based on near and far UVCD, the three target proteins unfolded in the order: CS>>>ADH>>βH crystallin when they were heated at 50° C. for sixty minutes (FIGS. 15 and 16). The thermal aggregation of βH crystallin, ADH and CS was measured as light scattering at λ=340 nm in the presence and absence of each peptide. The chaperone activity of each peptide was calculated as percent protection in which the aggregation of each target protein in the absence of any peptides was set at 0% protection (FIG. 19). The interactive peptides […] and 131LTITSSLSDGV141 were effective inhibitors of aggregation of all three chaperone target proteins.
(§2) A (top left): thermal aggregation of chaperone target proteins βH crystallin, ADH and CS in the absence of peptides was measured as light scattering at λ=340 nm. Each target protein was heated at 50° C. for sixty minutes in the absence or presence of one of the peptides. […] The chaperone activity of each peptide was calculated as percent protection in which the aggregation of each target protein in the absence of any peptides was set at 0% protection. The ability of the 73DRFSVNLDVKHFS85, 131LTITSSLSDGV141 and 111HGKHEERQDE120 to protect against the thermal aggregation of βH crystallin (B: top right), ADH (C: bottom left) and CS (D: bottom right) were tested in vitro (vertical bars). […] A 10:1 molar ratio of peptide:target protein was sufficient in conferring significant protection against the aggregation of CS by 73DRFSVNLDVKHFS85 and 131LTITSSLSDGV141.

[3] = target: ADH (Equus caballus, UniProt P00327); experiment: Chaperone assay, thermal aggregation of ADH at 50° C.; conditions: 50:1 molar ratio of peptide:ADH, sixty minutes, 340 nm
Protocol: as §1, §2

[4] = target: T1, CS (Sus scrofa, UniProt P00889); experiment: Chaperone assay, thermal aggregation of CS at 50° C.; conditions: 10:1 molar ratio of peptide:CS, sixty minutes, 340 nm
T1 sequence (P00889 28-464): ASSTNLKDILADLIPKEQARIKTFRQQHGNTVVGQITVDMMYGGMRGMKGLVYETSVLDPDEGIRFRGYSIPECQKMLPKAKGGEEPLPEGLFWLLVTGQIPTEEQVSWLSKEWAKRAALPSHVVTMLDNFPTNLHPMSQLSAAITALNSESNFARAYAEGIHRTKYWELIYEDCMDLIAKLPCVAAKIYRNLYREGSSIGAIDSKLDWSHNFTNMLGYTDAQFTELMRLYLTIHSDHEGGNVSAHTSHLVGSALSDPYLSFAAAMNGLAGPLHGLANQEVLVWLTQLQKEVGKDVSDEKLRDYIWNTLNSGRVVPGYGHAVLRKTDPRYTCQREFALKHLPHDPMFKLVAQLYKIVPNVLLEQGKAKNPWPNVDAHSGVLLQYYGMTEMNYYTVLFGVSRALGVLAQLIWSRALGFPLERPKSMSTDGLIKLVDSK
Protocol: as §1
A (top left): thermal aggregation of chaperone target proteins βH crystallin, ADH and CS in the absence of peptides was measured as light scattering at λ=340 nm. […] The chaperone activity of each peptide was calculated as percent protection in which the aggregation of each target protein in the absence of any peptides was set at 0% protection. […]

[5] = 1:1 and 1:10 molar ratio of amyloid-beta to peptide
[6] = 10:1 molar ratio of amyloid-beta to peptide

ADH, sequence (P00327 whole entry): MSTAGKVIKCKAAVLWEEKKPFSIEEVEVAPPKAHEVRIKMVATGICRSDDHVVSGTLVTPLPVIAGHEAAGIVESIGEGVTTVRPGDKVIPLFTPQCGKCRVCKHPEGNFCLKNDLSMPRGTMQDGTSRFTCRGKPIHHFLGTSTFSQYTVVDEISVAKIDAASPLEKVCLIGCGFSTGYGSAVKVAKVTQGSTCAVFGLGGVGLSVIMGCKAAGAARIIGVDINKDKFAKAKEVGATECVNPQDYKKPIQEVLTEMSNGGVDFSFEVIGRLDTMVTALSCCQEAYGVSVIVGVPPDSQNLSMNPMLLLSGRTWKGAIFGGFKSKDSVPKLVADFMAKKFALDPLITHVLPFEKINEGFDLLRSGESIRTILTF

Sequence	prevention of Cu+++-induced aggregation of amyloid-beta [1, 5]	prevention of Cu+++-induced aggregation of amyloid-beta [1, 6]	percent protection against thermal aggregation of βH crystallin [2]	percent protection against thermal aggregation of ADH [3]	percent protection against thermal aggregation of CS [4]
DRFSVNLDVKHFS	equally effective	less effective	approximately 30%	approximately 30%	
HGKHEERQDE	equally effective	less effective	No protection	No protection	partial protection
